According to patent CN108264558A (SHANGHAI NOVOPROTEIN BIOTECHNOLOGY CO LTD, dated 2018):

Legend:
Assay in all cases: ELISA, target coated at 1 μg/ml, TsM titrated from 10 μg/ml
CD19-CD3-OX40L TsM_M = target: T1, CD19-CD3-OX40L TsM_M
T1 construct: CHO-S expressed, N-glycosylated monomer; also called 单体形式的抗CD19/抗CD3/OX40L三特异性分子

CD19-CD3-GITRL TsM_D = target: T2, CD19-CD3-GITRL TsM_D
T2 construct: Disulfide-linked, glycosylated dimer; also called 二聚体形式的抗CD19/抗CD3/GITRL三特异性分子

CD19-CD3-GITRL TsM_M = target: T3, CD19-CD3-GITRL TsM_M
T3 construct: CHO-S expressed, N-glycosylated monomer; also called 单体形式的抗CD19/抗CD3/GITRL三特异性分子

CD19-CD3-CD70 TsM_D = target: T4, CD19-CD3-CD70 TsM_D
T4 construct: Disulfide-linked, glycosylated dimer; also called 二聚体形式的抗CD19/抗CD3/CD70三特异性分子

CD19-CD3-B7RP-1 TsM_D = target: T5, CD19-CD3-B7RP-1 TsM_D
T5 construct: Disulfide-linked, glycosylated dimer; also called 二聚体形式的抗CD19/抗CD3/B7RP-1三特异性分子

CD19-CD3-OX40L TsM_D = target: T6, CD19-CD3-OX40L TsM_D
T6 construct: Disulfide-linked, glycosylated dimer; also called 二聚体形式的抗CD19/抗CD3/OX40L三特异性分子

CD19-CD3-CD70 TsM_M = target: T7, CD19-CD3-CD70 TsM_M
T7 construct: CHO-S expressed, N-glycosylated monomer; also called 单体形式的抗CD19/抗CD3/CD70三特异性分子

CD19-CD3-B7RP-1 TsM_M = target: T8, CD19-CD3-B7RP-1 TsM_M
T8 construct: CHO-S expressed, N-glycosylated monomer; also called 单体形式的抗CD19/抗CD3/B7RP-1三特异性分子

CD19-CD3-4-1BBL TsM_M = target: T9, CD19-CD3-4-1BBL TsM_M
T9 construct: monomer confirmed by SDS-PAGE and mass spectrometry; also called 单体形式的抗CD19/抗CD3/4-1BBL三特异性分子; 单体形式的TiTE三特异分子

CD19-CD3-4-1BBL TsM_D = target: T10, CD19-CD3-4-1BBL TsM_D
T10 construct: Two chains joined by disulfide bonds of the IgD hinge (dimer by non-reducing SDS-PAGE and mass spectrometry); also called 二聚体形式的抗CD19/抗CD3/4-1BBL三特异性分子; 二聚体形式的TiTE三特异分子

Measured: binding result

B1: 人类CD19-hFc融合蛋白 (Fc fusion, human, UniProt P15391 20-291, looked up)
chain: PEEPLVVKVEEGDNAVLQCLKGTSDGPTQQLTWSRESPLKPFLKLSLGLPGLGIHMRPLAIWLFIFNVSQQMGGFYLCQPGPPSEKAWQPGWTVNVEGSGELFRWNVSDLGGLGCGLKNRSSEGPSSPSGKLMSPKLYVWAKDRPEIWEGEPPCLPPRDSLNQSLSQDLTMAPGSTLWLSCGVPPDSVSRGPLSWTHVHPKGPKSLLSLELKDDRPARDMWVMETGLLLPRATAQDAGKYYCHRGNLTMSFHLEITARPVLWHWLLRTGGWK
notes: Bought from 吴江近岸蛋白质科技有限公司; Coated at 1 μg/ml in ELISA; also called 重组抗原CD19-hFc; 抗原CD19-hFc; not shown: human Fc (hFc)
binds: all assays above

B2: 人类GITR-hFc融合蛋白 (Fc fusion)
chain: QRPTGGPGCGPGRLLLGTGTDARCCRVHTTRCCRDYPGEECCSEWDCMCVQPEFHCGDPCCTTCRHHPCPPGQGVQSQGKFSFGFQCIDCASGTFSGGHEGHCKPWTDCTQFGFLTVFPGNKTHNAVCVPGSPPAE
notes: Bought from 吴江近岸蛋白质科技有限公司; also called 重组蛋白GITR-hFc; T细胞正共刺激分子GITR-hFc; not shown: human Fc (hFc)
binds: CD19-CD3-GITRL TsM_D | CD19-CD3-GITRL TsM_M

B3: 人类ICOS-hFc融合蛋白 (Fc fusion)
chain: EINGSANYEMFIFHNGGVQILCKYPDIVQQFKMQLLKGGQILCDLTKTKGSGNTVSIKSLKFCHSQLSNNSVSFFLYNLDHSHANYYFCNLSIFDPPPFKVTLTGGYLHIYESQLCCQLK
notes: Bought from 吴江近岸蛋白质科技有限公司; also called 重组蛋白ICOS-hFc; T细胞正共刺激分子ICOS-hFc; not shown: human Fc (hFc)
binds: CD19-CD3-B7RP-1 TsM_D | CD19-CD3-B7RP-1 TsM_M
